The target of this experiment is IpaB (invasion plasmid antigen B), C-terminal his6-tag, produced in CFPS (S. flexneri 2a). The experiment is described as follows: SEC-MALS; Superdex200 10/30 Increase, 50 mM Tris pH 8, 150 mM NaCl, 0.1% (v/v) LDAO, 0.5 mL/min, column 25 °C, about 50-100 μg injected. (In general: SEC sorts molecules by how far they enter the pores of the column.)

As a reminder, the stoichiometry N is the number of molecules, sites or subunits per partner or assembly. As for “IpaB (invasion plasmid antigen B), C-terminal his6-tag, produced in CFPS (natural protein)”, the stoichiometry N was determined as 2.
